No end group written: not given here.
How the values were obtained:
Taf14 (residues 1-138) = target: T1, Taf14 (residues 1-138) (S. cerevisiae, UniProt P35189 1-138); assay: crystal structure
T1 sequence (looked up): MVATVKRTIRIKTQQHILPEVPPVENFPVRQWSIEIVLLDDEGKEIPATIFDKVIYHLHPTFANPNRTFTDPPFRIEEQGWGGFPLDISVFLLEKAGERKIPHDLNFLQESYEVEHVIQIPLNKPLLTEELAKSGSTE

[1] = target: T2, Taf14 YEATS domain (residues 1-132) (S. cerevisiae, UniProt P35189 1-132); assay: NMR titration
T2 sequence (looked up): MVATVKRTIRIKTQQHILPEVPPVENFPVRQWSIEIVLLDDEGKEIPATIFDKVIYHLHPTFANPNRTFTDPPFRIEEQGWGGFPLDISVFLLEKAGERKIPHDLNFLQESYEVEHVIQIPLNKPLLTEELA

binding result (Taf14 (residues 1-138)): binds | binding result [1]: binds
B1: H3K9ac(5-13) peptide (peptide, UniProt P68431 6-14, looked up)
peptide: Ac-QTARK(Ac)STGG
